According to patent US20130216549A1 (NOVLMMUNE S A, published 2013):

T1: recombinant human IP-10 (Peprotech) (human, UniProt P02778 22-98)
T1 sequence: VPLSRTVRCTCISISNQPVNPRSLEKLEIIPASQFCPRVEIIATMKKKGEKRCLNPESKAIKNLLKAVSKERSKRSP

T2: NusA-rat IP-10 fusion protein (rat, UniProt P48973 22-98)
T2 chain: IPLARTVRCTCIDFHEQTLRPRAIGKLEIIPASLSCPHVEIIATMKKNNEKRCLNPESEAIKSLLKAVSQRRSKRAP

T3: NusA-cynomolgus IP-10 fusion protein (cynomolgus, UniProt Q8MIZ1 22-98 (rhesus entry))
T3 construct: junction and C-terminal AviTag not spelled out
T3 sequence: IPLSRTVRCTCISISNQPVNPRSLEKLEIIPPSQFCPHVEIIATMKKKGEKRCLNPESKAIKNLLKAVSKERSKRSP


Tests used:
[1] = biological target: T1, recombinant human IP-10 (Peprotech); assay: cell-based or functional assay
[2] = biological target: T2, NusA-rat IP-10 fusion protein; assay: capture ELISA: NI-0801 coated, NusA fusion protein titrated, detected with anti-NusA antibody, fluorescence
From the text: (§1) Briefly, IP-10 cloned from cDNA isolated from mouse, rat, rabbit and cynomolgus as well as a panel of human chemokines was expressed and purified as described in Example 1.

[3] = biological target: T3, NusA-cynomolgus IP-10 fusion protein; assay: capture ELISA: NI-0801 coated, NusA fusion protein titrated (CK Conc [M]), detected with anti-NusA antibody, fluorescence
From the text: as §1

| Calcium flux IC50 (nM); 10 nM hIP-10 [1] [nM] | Chemotaxis IC50 (nM); 1 nM hIP-10 [1] [nM] | binding result [2] | EC50 (read off the curve) [3] [nM] | Binder |
| --- | --- | --- | --- | --- |
| 36 | 7 |  |  | CC21R3P1_A2 (scFv format) (scFv, V domains shown) VH: QLVESGGGLIQPGGSLRLSCAASGFSVSDTYMNWVRQAPGKGLEWVSSIYSDDSTYYADSVKGRFTISRDNSKNTLFLQINSLRAEDTAVYYCARDKEYVTSTGGAYYYFYYMDVWGQGTLVTVSS VL: not shown |
|  |  | no binding (tested: about 2.5e-7 M) | ~1 | NI-0801 (IgG1-formatted) (antibody, V domains shown) VH: QVQLVESGGGVVQPGRSLRLSCAASGFTFSNSGIHWVRQAPGKGLEWVAVISYDGSNKYYADSVKGRFTISRDNSKNTLYLQMNSLRAEDTAVYYCARLRDNAEYTDYWGQGTLVTVSS VL: NFMLTQPHSVSESPGKTVTISCTGSGGSIASNYVQWYQQRPGSSPTTVIYEDNQRPSGVPDRFSGSIDSSSNSASLTISGLKTEDEADYYCQSYDPLPVWVFGGGTKLTVLG |
